Assay results: paper PMC10403129

How the values were obtained:
GST-SAP-RG (rat) = experiment: on-bead pull-down; conditions: Hill 2.5; 100 ng pBS/FTZ, 10 mM Mg2+; unit implied by comparison; EMSA: 35 mM Tris-HCl pH 8.0, 72 mM KCl, 5 mM MgCl2, 5 mM DTT, 5 mM spermidine, 50 ug/ml BSA, 37 C; on-bead: 50 mM Tris-HCl pH 8.0, 120 mM KCl, 10 mM MgCl2 …
GST-RG (rat) = experiment: on-bead pull-down; conditions: Hill 1.8, 100 ng pBS/FTZ, 2 ul beads, 10 mM Mg2+, EMSA: 35 mM Tris-HCl pH 8.0, 72 mM KCl, 5 mM MgCl2, 5 mM DTT, 5 mM spermidine, 50 ug/ml BSA, 37 C, on-bead: 50 mM Tris-HCl pH 8.0, 120 mM KCl, 10 mM MgCl2 …
GST-SAP (rat) = experiment: on-bead pull-down; conditions: Hill 4.6, 100 ng pBS/FTZ, 2 ul beads, 10 mM Mg2+, EMSA: 35 mM Tris-HCl pH 8.0, 72 mM KCl, 5 mM MgCl2, 5 mM DTT, 5 mM spermidine, 50 ug/ml BSA, 37 C, on-bead: 50 mM Tris-HCl pH 8.0, 120 mM KCl, 10 mM MgCl2 …
hnRNP U WT (SP120) (rat) = experiment: EMSA; conditions: C50, competitive with equimolar vector, 5 mM Mg2+, 10 mM MgCl2 in gel, EMSA: 35 mM Tris-HCl pH 8.0, 72 mM KCl, 5 mM MgCl2, 5 mM DTT, 5 mM spermidine, 50 ug/ml BSA, 37 C, on-bead: 50 mM Tris-HCl pH 8.0, 120 mM KCl
hnRNP U ΔSAP (rat) = experiment: EMSA; conditions: C50, competitive with equimolar vector, 5 mM Mg2+, 10 mM MgCl2 in gel, EMSA: 35 mM Tris-HCl pH 8.0, 72 mM KCl, 5 mM MgCl2, 5 mM DTT, 5 mM spermidine, 50 ug/ml BSA, 37 C, on-bead: 50 mM Tris-HCl pH 8.0, 120 mM KCl

With FTZ S/MAR insert the Kd (pmol (on beads)) (GST-SAP-RG (rat)) was 6.7, the half-saturation protein amount (pmol (on beads)) (GST-RG (rat)) was 13 and the half-saturation protein amount (pmol (on beads)) (GST-SAP (rat)) was 22.5. For the same substance, the K half (hnRNP U WT (SP120) (rat)) was 14 nM and the K half (hnRNP U ΔSAP (rat)) was 32 nM.
